The values below come from paper PMC12059179, “A short intrinsically disordered region at KtrB’s N-terminus facilitates allosteric regulation of K^+ channel KtrAB” (Nature Communications, 2025).

The chains are these.
T1: KtrAB (KtrB2A8B2 complex) (Vibrio alginolyticus, UniProt O87952)
T1 construct: gene ktrA; nonphysiological assembly with a second KtrB dimer on the KtrA octamer; full-length, in DDM; wild type purified via ATP agarose; KtrA C-terminal His tag removed by 3C protease; with Ktr system potassium uptake protein B
T1 sequence (O87952 1-220): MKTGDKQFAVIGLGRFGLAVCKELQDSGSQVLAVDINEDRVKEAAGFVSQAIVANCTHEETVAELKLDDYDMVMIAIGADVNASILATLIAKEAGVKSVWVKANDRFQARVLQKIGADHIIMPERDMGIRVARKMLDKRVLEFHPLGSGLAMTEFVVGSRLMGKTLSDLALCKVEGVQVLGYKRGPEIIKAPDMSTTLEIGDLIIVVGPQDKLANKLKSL
T1 sequence (O87953 1-455 partner): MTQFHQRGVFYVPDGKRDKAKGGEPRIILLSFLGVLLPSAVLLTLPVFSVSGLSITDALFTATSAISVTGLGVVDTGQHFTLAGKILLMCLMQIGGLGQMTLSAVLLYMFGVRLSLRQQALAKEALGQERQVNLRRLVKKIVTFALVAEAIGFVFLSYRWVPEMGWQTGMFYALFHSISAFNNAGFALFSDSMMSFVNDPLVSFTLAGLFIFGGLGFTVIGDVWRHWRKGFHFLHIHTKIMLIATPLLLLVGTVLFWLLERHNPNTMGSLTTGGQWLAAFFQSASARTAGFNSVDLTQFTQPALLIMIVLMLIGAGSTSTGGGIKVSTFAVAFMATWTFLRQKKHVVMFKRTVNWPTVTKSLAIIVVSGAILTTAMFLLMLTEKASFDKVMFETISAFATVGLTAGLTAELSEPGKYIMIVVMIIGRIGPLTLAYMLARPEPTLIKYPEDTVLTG

T2: KtrA (VaKtrA, KtrAC3H) (Vibrio alginolyticus, UniProt O87952)
T2 construct: full-length cytosolic RCK subunit, C-terminal 3C-cleavable His tag (KtrAC3H), eluted with imidazole (tag kept), expressed in E. coli C43(DE3)ΔacrAB; homooctameric ring
T2 sequence (O87952 1-220): T1 sequence (O87952 1-220)

T3: KtrAB (native KtrB2A8 complex) (Vibrio alginolyticus, UniProt O87952)
T3 construct: gene ktrA; full-length complex in DDM; tagless KtrB membranes (E. coli LB2003) mixed with KtrA (C-terminal His tag, removed by 3C protease); KtrA octamer with one KtrB dimer; with Ktr system potassium uptake protein B
T3 sequence (O87952 1-220): T1 sequence (O87952 1-220)
T3 sequence (O87953 1-455 partner): T1 sequence (O87953 1-455 partner)

B1: KtrB from Vibrio alginolyticus with deletion of residues 2-19 (natural protein)
chain: MAKGGEPRIILLSFLGVLLPSAVLLTLPVFSVSGLSITDALFTATSAISVTGLGVVDTGQHFTLAGKILLMCLMQIGGLGQMTLSAVLLYMFGVRLSLRQQALAKEALGQERQVNLRRLVKKIVTFALVAEAIGFVFLSYRWVPEMGWQTGMFYALFHSISAFNNAGFALFSDSMMSFVNDPLVSFTLAGLFIFGGLGFTVIGDVWRHWRKGFHFLHIHTKIMLIATPLLLLVGTVLFWLLERHNPNTMGSLTTGGQWLAAFFQSASARTAGFNSVDLTQFTQPALLIMIVLMLIGAGSTSTGGGIKVSTFAVAFMATWTFLRQKKHVVMFKRTVNWPTVTKSLAIIVVSGAILTTAMFLLMLTEKASFDKVMFETISAFATVGLTAGLTAELSEPGKYIMIVVMIIGRIGPLTLAYMLARPEPTLIKYPEDTVLTG
notes: KtrB, Vibrio alginolyticus, with the N-terminal residues 2-19 deleted; Two KtrB dimers stand in the solved assembly: KtrBΔ2-19_(4)A8, deposited as KtrB2A8B2 with the N-terminal KtrB deletion; also called KtrBΔ2-19; KtrAB_(Δ2-19); source: purified as a complex with KtrA (SEC)
B2: KtrB from Vibrio alginolyticus, tagless, full length (natural protein, UniProt O87953 1-455, looked up)
chain: T1 sequence (O87953 1-455 partner)
notes: KtrB, transmembrane pore-forming subunit of the K+ channel KtrAB, Vibrio alginolyticus; C-terminal residue G455; Homodimer; It was in DDM for the deposited structures and in MSP2N2 nanodiscs with E. coli polar lipids for one cryo-EM data set; also called VaKtrB; KtrB dimer; source: E. coli LB2003, membranes mixed with KtrA-containing cytosol, solubilised in DDM, co-purified with KtrA (Ni-NTA, …)
B3: KtrA from Vibrio alginolyticus, His tag cleaved off with 3C protease (natively assembled KtrB2A8 preparation) (natural protein, UniProt O87952 1-220, looked up)
chain: T1 sequence (O87952 1-220)
notes: KtrA, cytosolic RCK subunit of the K+ channel KtrAB, Vibrio alginolyticus; full-length KtrAB; Residues of the 3C site may remain at the C-terminus after cleavage; also called VaKtrA; KtrAC3H; source: E. coli C43(DE3)ΔacrAB; not shown: His tag, C-terminal, cleaved
B4: KtrA from Vibrio alginolyticus with C-terminal His tag (KtrAC3H), eluted with imidazole (natural protein, UniProt O87952 1-220, looked up)
chain: T1 sequence (O87952 1-220)
notes: KtrA, cytosolic RCK subunit of the K+ channel KtrAB, Vibrio alginolyticus; full-length KtrAB; Same construct as m1; Here no 3C cleavage is reported: imidazole elution for isolated KtrA, and imidazole removal is mentioned before the ATP agarose step; also called VaKtrA; isolated KtrA ring; source: E. coli C43(DE3)ΔacrAB, purified (Ni-NTA eluted with imidazole, SEC); for KtrB2A8B2 also ATP agarose

Data set [1] deals with T1, KtrAB (KtrB2A8B2 complex). Description: cryo-EM structure, […] Å. Type of data set: binding. Particulars: ADP found despite ATP agarose and ATP in the sample; Mg2+ at alpha-phosphate.
In data set [2] the target is T2, KtrA (VaKtrA, KtrAC3H). The data set is described as follows: isothermal titration calorimetry. Particulars: pH 8, 24 °C, 20 mM HEPES, 140 mM NaCl, 60 mM KCl; one-site fit; no KtrB. Type of data set: binding. (ITC needs no label: the signal is the heat of the interaction.)
In data set [3] the target is T3, KtrAB (native KtrB2A8 complex). The data set is described as follows: cryo-EM structure, […] Å. Type of data set: binding. Particulars: co-purified ADP, sample prepared with ATP and MgCl2.
Data set [4] has as its target T2, KtrA (VaKtrA, KtrAC3H). Description: differential scanning fluorimetry (SYPRO Orange). It is filed as binding. Particulars: pH 7.5, 20 mM Tris-HCl, 140 mM NaCl, 60 mM KCl; 5 µM KtrA; melting temperature with ligand, not a shift. On the technique in general: In DSF a fluorescence change marks the thermal transition of the protein.
Data set [5] deals with the molecule itself. The data set is described as follows: cryo-EM structure; KtrAB with KtrB Δ2-19, KtrBΔ2-19_(4)A8 assembly, supplemented with 1 mM ATP, 3.6 Å, 58,000 particles.
Data set [6] concerns the molecule itself. Description: cryo-EM structure; natively assembled KtrB2A8 complex in DDM, 2.8 Å, C2 symmetry; sample supplemented with 1 mM ATP and 2 mM MgCl2, ADP found bound.
Data set [7] has as its target B2. The description is as above. Particulars: both partners purified.
Data set [8] concerns the molecule itself. Description: cryo-EM structure; nonphysiological KtrB2A8B2 assembly purified via ATP agarose, in DDM, 2.5 Å, D2 symmetry; 1 mM ATP and 2 mM MgCl2, ADP found bound.
For data set [9], the target named is B2. Described as above. Particulars: both partners purified.
The target of data set [10] is B1. The data set is described as follows: cryo-EM structure; KtrAB with KtrB Δ2-19, KtrBΔ2-19_(4)A8 assembly, supplemented with 1 mM ATP, 3.6 Å, 58,000 particles. Particulars: both partners purified.

The term Kd denotes the equilibrium constant for the complex coming apart. Read a low Kd as a tighter complex. As to `Nc1ncnc2c1ncn2[C@@H]1O[C@H](COP(=O)(O)OP(=O)(O)O)[C@@H](O)[C@H]1O` [ADP], the “cryo-EM structure, 2.5 Å” value in data set [1] is “ADP molecules bound to the N lobes of each of the eight KtrA subunits”. In addition, the Kd in data set [2] amounted to 3400 nM. Also, in [3], the “cryo-EM structure, 2.8 Å” value is recorded as “KtrA ring contains non-protein densities corresponding to ADP molecules”. Also, in data set [4], the Tm is 67 °C.
In turn, `Nc1ncnc2c1ncn2[C@@H]1O[C@H](COP(=O)(O)OP(=O)(O)OP(=O)(O)O)[C@@H](O)[C@H]1O` [ATP] showed a Kd in [2] of 2400 nM. Also, in data set [4], the Tm was found to be 55 °C.
In the case of B1, the binding result in [5] was “binds”.
As usually defined, the stoichiometry N is the number of molecules, sites or subunits per partner or assembly. B2: the “stoichiometry N” value in data set [6] turned out to be 2.
As for B3, the “stoichiometry N” value in [6] stood at 8. Moreover, the binding result in [7] is given as “binds”.
For B4, the “stoichiometry N” value in data set [8] stood at 8. For the same molecule, the binding result in data set [9] and in [10] was “binds” each time.
